In US20140161799A1 (ARCH ONCOLOGY, published 2014):
Numbering of substitutions follows the chain as printed.

T1: mouse CD47 (mouse, UniProt Q61735 19-303)
T1 construct: whole, on cells; also called CD47 on mouse red blood cells
T1 sequence (looked up): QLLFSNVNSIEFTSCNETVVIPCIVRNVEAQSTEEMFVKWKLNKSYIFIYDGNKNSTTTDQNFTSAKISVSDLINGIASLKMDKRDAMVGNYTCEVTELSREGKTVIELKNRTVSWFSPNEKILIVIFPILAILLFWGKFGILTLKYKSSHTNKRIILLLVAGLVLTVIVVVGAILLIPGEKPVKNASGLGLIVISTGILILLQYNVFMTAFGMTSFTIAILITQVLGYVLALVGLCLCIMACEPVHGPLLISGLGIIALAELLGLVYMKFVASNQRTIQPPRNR

T2: rat CD47 (rat, UniProt P97829 19-303)
T2 construct: whole, on cells; also called CD47 on rat red blood cells
T2 sequence (looked up): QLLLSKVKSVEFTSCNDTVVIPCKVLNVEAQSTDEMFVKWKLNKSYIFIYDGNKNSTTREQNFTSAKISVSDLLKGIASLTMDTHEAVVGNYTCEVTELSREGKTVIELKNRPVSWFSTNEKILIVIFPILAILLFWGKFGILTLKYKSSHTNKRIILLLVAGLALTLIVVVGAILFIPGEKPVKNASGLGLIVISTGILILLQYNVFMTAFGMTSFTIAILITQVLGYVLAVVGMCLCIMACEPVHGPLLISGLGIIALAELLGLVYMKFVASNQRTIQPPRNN

T3: pig CD47 (pig, UniProt Q9GKE8 19-303)
T3 construct: whole, on cells; also called CD47 on pig red blood cells
T3 sequence (looked up): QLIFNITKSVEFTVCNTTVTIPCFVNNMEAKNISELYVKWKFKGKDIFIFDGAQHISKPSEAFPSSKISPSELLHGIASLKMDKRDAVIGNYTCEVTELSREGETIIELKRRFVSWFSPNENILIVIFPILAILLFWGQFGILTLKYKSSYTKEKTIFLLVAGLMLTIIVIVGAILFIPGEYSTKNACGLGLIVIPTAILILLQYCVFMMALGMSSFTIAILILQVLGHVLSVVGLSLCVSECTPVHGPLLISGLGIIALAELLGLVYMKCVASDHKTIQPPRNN

B1: pVxK7b-037-hum11-LC/pVxK7b-037-hum11-HC (antibody, human IgG1, V domains shown)
VH: QVQLQESGPGLVKPGATVKISCKVSGYTFTNYYVFWVRQARGQRLEWIGDINPVNGDTNFNEKFKNRVTITADKSTSTAYMELSSLRSEDTAVYYCARGGYTMDYWGQG
VL: EIVLTQSPATLSVSPGERATLSCRSSQSLVHSNGNTYLHWYQQKPGQAPRLLIYKVSYRFSGVPSRFSGSGSGTDFTFTISSLEAEDAATYYCSQNTHVPRTFGQG
notes: Full-length human IgG1/kappa in CHO supernatant; Variable entries end within framework 4 (...FGQG / ...WGQG); also called Clone 11
B2: pVxK7b-037-hum18-LC/pVxK7b-037-hum18-HC (antibody, human IgG1, V domains shown)
VH: EVQLVQSGAEVKKPGESLRISCKGSGYTFTNYYVFWIRQSPSRGLEWLGDINPVNGDTNFNEKFKNRVTITADKSTSTAYMELSSLRSEDTAVYYCARGGYTMDYWGQG
VL: B1 VL
notes: Full-length human IgG1/kappa in CHO supernatant; Variable entries end within framework 4 (...FGQG / ...WGQG); also called Clone 18
B3: pVxK7b-037-hum10-LC/pVxK7b-037-hum10-HC (antibody, human IgG1, V domains shown)
VH: QVQLQESGPGLVKPSQTLSLTCTVSGYTFTNYYVFWVRQARGQRLEWIGDINPVNGDTNFNEKFKNRLTISKDTSKNQVVLTMTNMDPVDTATYYCARGGYTMDYWGQG
VL: DIVMTQTPLSLPVTPGEPASISCRSSQSLVHSNGNTYLHWYLQKPGQSPQLLIYKVSYRFSGVPDRFSGSGSGTDFTLKISRVEAEDVGVYYCSQNTHVPRTFGQG
notes: Full-length human IgG1/kappa in CHO supernatant; Variable entries end within framework 4 (...FGQG / ...WGQG); also called Clone 10
B4: pVxK7b-037-hum20-LC/pVxK7b-037-hum20-HC (antibody, human IgG1, V domains shown)
VH: QITLKESGPTLVKPTQTLTLTCTFSGYTFTNYYVFWVRQAPGQGLEWMGDINPVNGDTNFNEKFKNRVTITADKSTSTAYMELSSLRSEDTAVYYCARGGYTMDYWGQG
VL: B3 VL
notes: Full-length human IgG1/kappa in CHO supernatant; Variable entries end within framework 4 (...FGQG / ...WGQG); also called Clone 20
B5: pVxK7b-037-hum22-LC/pVxK7b-037-hum22-HC (antibody, human IgG1, V domains shown)
VH: B3 VH
VL: B1 VL
notes: Full-length human IgG1/kappa in CHO supernatant; Variable entries end within framework 4 (...FGQG / ...WGQG); also called Clone 22
B6: pVxK7b-037-hum01-LC/pVxK7b-037-hum01-HC (antibody, human IgG1, V domains shown)
VH: QVQLQESGPGLVKPSQTLSLTCTVSGYTFTNYYVFWVRQARGQRLEWIGDINPVNGDTNFNEKFKNRVTISADKSISTAYLQWSSLKASDTAMYYCARGGYTMDYWGQG
VL: B3 VL with L42Q, Q47K, S48A, Q50K
notes: Full-length human IgG1/kappa in CHO supernatant; Variable entries end within framework 4 (...FGQG / ...WGQG); also called Clone 1
B7: pVxK7b-037-hum14-LC/pVxK7b-037-hum14-HC (antibody, human IgG1, V domains shown)
VH: B6 VH
VL: B3 VL with I2V, T7S, P15L, E17Q, L42Q, Q47K, S48A, Q50K
notes: Full-length human IgG1/kappa in CHO supernatant; Variable entries end within framework 4 (...FGQG / ...WGQG); also called Clone 14
B8: pVxK7b-037-hum16-LC/pVxK7b-037-hum16-HC (antibody, human IgG1, V domains shown)
VH: B6 VH
VL: AIQLTQSPSSLSASVGDRVTITCRSSQSLVHSNGNTYLHWYQQKPGQAPRLLIYKVSYRFSGVPDRFSGSGSGTDFTLKISRVEAEDVGVYYCSQNTHVPRTFGQG
notes: Full-length human IgG1/kappa in CHO supernatant; Variable entries end within framework 4 (...FGQG / ...WGQG); also called Clone 16
B9: pVxK7b-037-hum17-LC/pVxK7b-037-hum17-HC (antibody, human IgG1, V domains shown)
VH: B2 VH with E16A, S17T, L18V, R19K, G24V, S40P, S42G, R43K, L48I
VL: B8 VL
notes: Full-length human IgG1/kappa in CHO supernatant; Variable entries end within framework 4 (...FGQG / ...WGQG); also called Clone 17

Each binder was assayed against T1, mouse CD47 (assay: flow cytometry on RBCs, antibody 10 ng/ml).
Procedure: (§1) Cross species reactivity of humanized antibodies of the present invention is determined using freshly isolated red blood cells (RBCs), which display CD47 on their surface, from human, mouse, rat, and pig according to the methods disclosed in Kamel et al. (2010) Blood. Transfus. 8(4):260-266.
(§2) RBCs are incubated for 60 minutes on ice with tissue culture supernatants containing the secreted humanized antibodies at a concentration of 10 ng/ml in a solution of phosphate buffered saline, pH 7.2, 2.5 mM EDTA (PBS+E). Cells are then washed with cold PBS+E, and incubated for an additional hour on ice with FITC labeled donkey anti-human antibody (Jackson Immuno Research Labs, West Grove, Pa.; Catalogue #709-096-149) in PBS+E. Cells are then washed with PBS+E, and antibody binding is analyzed using a BD FACSAria Cell Sorter (Becton Dickinson) or a C6 Accuri Flow Cytometer (Becton Dickinson). Antibody binding is quantitated by comparison of mean fluorescence values relative to that of chimeric antibody >VxP037-01LC (SEQ ID NO:7))/>VxP037-01HC (SEQ ID NO:57). The mean fluorescence value for each antibody is divided by the mean fluorescence value for the chimeric antibody.

Row | mean fluorescence relative to chimeric antibody | Binder
1 | 0.7 fold of chimera | B1
2 | 1.3 fold of chimera | B2
3 | 1.2 fold of chimera | B3
4 | 1.5 fold of chimera | B4
5 | 1.2 fold of chimera | B5
6 | 1.7 fold of chimera | B6
7 | 1.5 fold of chimera | B7
8 | 1 fold of chimera | B8
9 | 0.9 fold of chimera | B9

These binders were tested against T2, rat CD47 (assay: flow cytometry on RBCs, antibody 10 ng/ml).
Procedure: as §1, §2

Row | mean fluorescence relative to chimeric antibody | Binder
10 | 1.2 fold of chimera | B1
11 | 2.2 fold of chimera | B2
12 | 2.9 fold of chimera | B3
13 | 1.9 fold of chimera | B4
14 | 2.8 fold of chimera | B5
15 | 2.7 fold of chimera | B6
16 | 3.2 fold of chimera | B7
17 | 2.1 fold of chimera | B8
18 | 2.1 fold of chimera | B9

What follows are binders tested against T3, pig CD47 (assay: flow cytometry on RBCs, antibody 10 ng/ml).
Procedure: as §1, §2

Row | mean fluorescence relative to chimeric antibody | Binder
19 | 1.2 fold of chimera | B1
20 | 1.2 fold of chimera | B2
21 | 1.5 fold of chimera | B3
22 | 1.7 fold of chimera | B4
23 | 1.4 fold of chimera | B5
24 | 1.3 fold of chimera | B6
25 | 1.4 fold of chimera | B7
26 | 1.1 fold of chimera | B8
27 | 1.3 fold of chimera | B9

What follows are binders tested against T4, human CD47 (human, UniProt Q08722 19-323) (assay: flow cytometry on RBCs, antibody 10 ng/ml).
T4 construct: whole, on cells; also called CD47 on human red blood cells
T4 sequence (Q08722 19-323): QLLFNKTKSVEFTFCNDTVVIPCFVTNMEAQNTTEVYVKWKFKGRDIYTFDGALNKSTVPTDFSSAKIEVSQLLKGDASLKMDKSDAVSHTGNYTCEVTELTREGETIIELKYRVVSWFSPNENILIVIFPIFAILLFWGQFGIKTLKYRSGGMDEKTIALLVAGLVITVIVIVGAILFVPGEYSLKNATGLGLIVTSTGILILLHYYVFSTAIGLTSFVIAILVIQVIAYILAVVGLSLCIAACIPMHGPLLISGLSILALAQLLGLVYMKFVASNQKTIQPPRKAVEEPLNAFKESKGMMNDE
Procedure: as §1, §2

Row | mean fluorescence relative to chimeric antibody | Binder
28 | 0.8 fold of chimera | B1
29 | 1 fold of chimera | B2
30 | 1.1 fold of chimera | B3
31 | 1.3 fold of chimera | B4
32 | 1.1 fold of chimera | B5
33 | 1.1 fold of chimera | B6
34 | 1.1 fold of chimera | B7
35 | 0.9 fold of chimera | B8
36 | 0.8 fold of chimera | B9
